Test results: patent US20250051458A1, “Methods for Treating Neurodegeneration Targeting IGF1/IGF1R” (The Schepens Eye Research Institute, Inc., priority 2021, published 2025)

Legend:
[1] = system: microbead-induced glaucoma mice; format: in vivo, mouse
Description: For whole mounted retina staining, mouse eyeballs were fixed in 4% paraformaldehyde for 3 hours at room temperature or overnight at 4° C. fridge after sacrificing mice with carbon dioxide (CO2). Then retinas were dissected out and incubated with blocking buffer (3% donkey serum+1% BSA+0.1% Triton+0.1% Tween in 1×PBS) for 1-3 h RT. Then retinas were subjected to immunolabeling by incubation with primary antibody (Table 1) overnight at 4° C. After washing three times by washing buffer (0.1% Triton-100 in PBS), retinas were incubated with secondary antibody at room temperature for 2 hrs. After rinsing retina three times in washing buffer for 5-10 min on shaker, mount slide with Fluoroshield Mounting Medium with DAPI (Abcam, Cat. No. ab104139). Visualize under microscope (Leica, SP8). Secondary antibody: Streptavidin, Alexa Fluor 546 conjugate (1:1000, S11225, Invitrogen), Streptavidin, Alexa Fluor 488 conjugate (1:1000, S11223, Invitrogen), Cy2 Donkey Anti-rabbit (1:1000, 711-225-152, Jackson ImmunoResearch), Cy3 Donkey Anti-mouse (1:1000, 715-165-150, Jackson ImmunoResearch), Cy3 Donkey Anti-goat (1:1000, 705-165-147, Jackson ImmunoResearch).
Total RNA was extracted from retinas of adult mice or purified retinal microglial cells using RNeasy Plus Mini kit (Qiagen, 74134) or RNeasy Micro kit (Qiagen, 74004) following manufacturer's instruction. The RNA was reversely transcribed using Takara PrimeScript™ RT Master Mix (Takara Bio, RR036A). A mixture of master mix contained cDNA, 2× Master Mix from KAPA SYBR Fast qPCR kit and […] of specific primers was used to detect specific mRNA expression level using the Mastercycler ep realplex real-time PCR system (Eppendorf, Westbury, NY). The temperature of initial denaturation was set at 95° C. for 2 mins followed by 45 cycles of 15 seconds denaturation (95° C.), 15 seconds annealing (59° C.), and 20 seconds extension (68° C.), and lastly holding at 4° C. Relative amount of specific mRNA transcript was presented in fold changes by normalization to the expression level of the housekeeping gene glyceraldehyde 3-phosphate dehydrogenase (GAPDH). Expression was analyzed using the 2−ΔΔCt method. All primers were synthesized by Integrated DNA Technologies (USA).
Elevated IOP was induced unilaterally in adult mice (10-12 weeks old) as described previously^21. Briefly, the mice were anesthetized by i.p. injection of ketamine (120 mg/kg)/xylazine (20 mg/kg) mixture using 25-gauge needle. The pupil was dilated with tropical application of 1% Tropicamide followed by proparacaine HCl (0.5%; Baush & Lomb Incorporated, Tampa, FL) to numb the eye. An entry on the corneal was generated by a 30-gauge needle, and a small air bubble was injected into anterior chamber via a glass micropipette which was connected with a Hamilton syringe. 2 μl solution of 10 μm microspheres (9.0×10^7 beads/ml sterile saline; Thermo Fisher Scientific, Cat. No. F8833) was injected into anterior chamber with care to avoid damaging the iris and the lens. The micropipette will be withdrawn slowly after delivery of microbeads. Antibiotic ointment will be applied topically on the cornea after the injection, and then leave the operated mice to recover on a warm pad and monitored every 15 minutes until awake and fully sternal.
Mice were anesthetized by isoflurane inhalation (2-4%; Webster Veterinary, Sterling, MA) delivered in 100% Oxygen with a precision Vaporizer. The IOP was measured by TonoLab tonometer (Colonial Medical Supply) before and post-MB injection. An average of 6 IOP readings will be taken as one reading. At least […] readings of IOP level will be taken per mouse eye, and the mean of 3 readings represents the IOP level of a mouse eye. Baseline level of IOP in anesthetized mice was measured before induction of elevated IOP. Then the IOP was measured twice a week after microbeads injection induced IOP elevation. The IOP was measured at the same time in the morning to minimize the circadian variation. […]

[2] = system: Igf-1r conditional knock out on microglia mice; experiment: Microbead-induced glaucoma in mice with Igf-1r specific knock out on microglia; format: in vivo, mouse
Description: Adult (10-12 weeks old) male and female C57BL/6J (B6) (The Jackson Laboratory, 000664), Cx3cr1^GFP (The Jackson Laboratory, 005582), DBA/2J mice (The Jackson Laboratory, 000671) Igf1r^(lax) inducible knockout mice (The Jackson Laboratory, 012251) as well as Cx3cr1^tm2.1(cre/ERT2) mice were obtained from the Jackson Laboratory. Igf1r^(lax) mice were crossed with Cx3cr1^tm2.1(cre/ERT2) mice to generated Igf-1r specific knock out on microglia after 3 consecutive days injection of 100 mg/kg tamoxifen to mice. IGFBPL1 deficiency mice at a C57BL/6J genetic background (Knockout Mouse Project Repository, University of California at Davis) were used in following experiments. Mice of both genders were randomized into control and experimental groups. All experimental procedures and use of animals were approved and monitored by the Institute's Animal Care Committee and conform to the standards of the National Institute of Health and the Association for Research in Vision and Ophthalmology.
Elevated IOP was induced unilaterally in adult mice (10-12 weeks old) as described previously^21. […] Antibiotic ointment will be applied topically on the cornea after the injection, and then leave the operated mice to recover on a warm pad and monitored every 15 minutes until awake and fully sternal. […]

[3] = 14 days post glaucoma induction
[4] = intravitreal at day 3, 10 and 17 post IOP elevation

B1: IGFBPL1: insulin-like growth factor binding protein like protein 1; recombinant protein (R&D system, 4130-BL) (protein)
chain: LGLRDAGRRHPECSPCQQDRCPAPSPCPAPWISARDECGCCARCLGAEGASCGGPVGSRCGPGLVCASRASGTAPEGTGLCVCAQRGAVCGSDGRSYSSICALRLRARHAPRAHHGHLHKARDGPCEFAPVVLMPPRDIHNVTGTQVFLSCEVKAVPTPVITWKKVKHSPEGTEGLEELPGDHVNIAVQVRGGPSDHETTSWILINPLRKEDEGVYHCHAANAIGEAQSHGTVTVLDLNRYKSLYSSVPGDLL
Contrast sensitivity (CS) and visual acuity (VA) by optomotor response ([1]; 4- and 8-weeks post glaucoma induction): restored CS and VA
Expression of pro-inflammatory cytokines (C1q, Tnfα, Il-1β, Il-1α) in glaucoma retina [1, 3]: remarkably reduced
Level of activated microglia markers (Iba-1, Ym-1, Nox-2, Cd163) in retina by qPCR [1, 3]: dramatically down-regulate
Reactive astrocyte number and GFAP level in retina ([1]; day 14 post glaucoma induction): significantly restored
RGC quantification compared with baseline [1, 4]: no significant difference with baseline
RGCs loss and dysfunction from glaucomatous damages [1, 4]: significantly prevented RGCs loss and dysfunction
IBA-1+ microglia activation (morphology, cell density) in retina ([1]; intravitreal at day 3 and 10, 2 wks post glaucoma-induced injury): reverse activated microglia into resting state
pSTR amplitude (ERG) compared with baseline ([1]; mouse, in vivo): no significant difference with baseline
pSTR amplitude and RGCs (neuroprotective effect) ([2]; IGFBPL1 at day 3, 10 and 17 post microbeads-induced glaucoma, IGF-1R knocked out on microglia): neuroprotective effects diminished
Contrast sensitivity (CS) and visual acuity (VA) ([2]; Igf-1r−/− mice with MB induced glaucoma): very limited protective capacity
